Data taken from US8008452B2, “Phosphorylated Ndr kinase” (Novartis Forschungesstiftung, Zweigniederlassung Friedrich …, priority 2002, dated 2011).

How the values were obtained:
GST-NDR1 [1] = experiment: GST-NDR1 kinase assay (peptide kinase assay); assay type: biochemical, human; design: Specific activity of GST-NDR1 variants, CTRL / Specific activity of GST-NDR1 variants, −S100B / Specific activity of GST-NDR1 variants, +S100B: unit not given here
Description: 1 microgram of purified recombinant GST-NDR1 wild type and mutants (without further treatment or autophosphorylated for 2 h in the presence or absence of 1 mM CaCl2 and […] (Sigma)) were assayed in 20 microliter of reaction mixture containing 20 mM Tris-HCl pH 7.5, 10 mM MgCl2, 1 mM DTT, 100 microM [gamma-^32P]ATP (˜0.5 microCi/microliter), and 1 mM NDR1 substrate peptide ([…]; SEQ ID NO:22). After 30 mins incubation at 30° C., reactions were stopped with 50 mM EDTA, and 10 microliters of reaction mixture were spotted onto 2 cm^2 squares of P81 phosphocellulose paper (Whatman). These were subsequently washed for 4×5 min and 3×20 min in 1% phosphoric acid and once in acetone before counting in a liquid scintillation counter. One unit of NDR1 activity was defined as the amount which catalyses the phosphorylation of 1 nmol peptide substrate in 1 min.
Specific activity of GST-NDR1 mutants was also measured by a peptide kinase assay as described above. For this purpose, 1 microgram of purified GST-NDR1 wild type and alanine mutants were left without further treatment or autophosphorylated for 2 h in the presence or absence of 1 mM CaCl2 and […].

HA-NDR1 = HA-NDR1 kinase assay on 12CA5 immunoprecipitates from transfected, treated COS-1 cells; assay type: cell-based, human; design: kinase activity of HA-NDR1 variants, −OA: unit not given here; settings: COS-1 cells
Description: In some experiments, the cells were treated for 60 min with 1 microM okadaic acid in 0.1% N,N-dimethylformamide (DMF) (Alexis Corp.), 50 microM BAPTA-AM (1,2-bis (o-aminophenoxy) ethane-N,N,N′,N′-tetraacetic acid tetra (acetoxy-methyl)ester) in 0.1% diimethylsulfoxide (DMSO; Sigma), or 20 microM thapsigargin in 0.1% DMSO (Alomone) 24 hours after transfection.
Transfected and treated COS-1 cells were washed once with ice-cold PBS, and harvested by rubber policeman in 1 ml ice-cold PBS containing 1 mM Na3VO4 and 20 mM beta-glycerophosphate before lysis in 500 microliters of IP buffer (20 mM Tris-HCl pH 8.0, 150 mM NaCl, 1% Nonidet P-40, 10% glycerol, 1 mM Na3VO4, 20 mM beta-glycerolphosphate, 1 microM microcystin-LR, 50 mM NaF, 0.5 mM PMSF, 4 microM leupeptin, 1 mM benzamidine, and 1 tablet/10 ml IP of Complete protease inhibitors (Roche)). Lysates were centrifuged at 20 000 g for 20 min and triplicate aliquots (200 microg) of supernatant were precleared with protein A-Sepharose (Amersham Pharmacia Biotech) for 60 min and mixed subsequently for 3 h at 4° C. with 12CA5 antibody prebound to protein A-Sepharose (˜1 microg antibody bound to 2 microl beads). The beads were then washed twice with IP buffer, once for 10 min with IP buffer containing 1 M NaCl, once again for 10 min with IP buffer, and finally twice with 20 mM Tris-HCl pH 7.5 containing 4 microM leupeptin and 1 mM benzamidine. Thereafter, beads were resuspended in 30 microliters buffer containing 20 mM Tris-HCl pH 7.5, 10 mM MgCl2, 1 mM DTT, 100 microM [gamma-^32P]ATP (˜0.1 microCi/microliter), 1 microM cAMP-dependent protein kinase inhibitor peptide PKI (Bachem), 4 microM leupeptin, 1 mM benzamidine, 1 microM microcystin-LR, and 1 mM NDR1 substrate peptide ([…]). After 60 min incubation at 30° C., 15 microliters of supernatant were removed, and phosphate incorporation into the substrate peptide determined as described for GST-NDR1 above.
COS-1 cells expressing either wild type HA-NDR1 or the indicated mutants were treated for 1 h with 1 microM okadaic acid or with solvent alone. HA-tagged NDR kinase variants were then immunoprecipitated (out of 100 microgram of detergent extracts) with 12CA5 monoclonal antibody and assayed for kinase activity by a peptide kinase assay as described above.
Mock-transfected or HA-NDR1-expressing COS-1 cells were treated for 1 h with […], 50 microM BAPTA-AM, and […] or with solvent (0.1% DMF or 0.1% DMSO) alone. 12CA5 immunoprecipitates (out of 100 microgram protein extract) were then assayed using the peptide kinase assay for NDR1 kinase activity.
To test whether hMOB1 plays a role in NDR activation, myc-hMOB1 or the empty vector was cotransfected with HA-NDR1 in COS1 cells and treated with OA. 12CA5 immunoprecipitates were then assayed using the peptide kinase assay for HA-NDR kinase activity. […] GST-MOB and GST respectively was added to immunoprecipitated HA-NDR and kinase reaction were performed. The reactions were resolved on a 10% SDS PAGE and the radioactivity visualised by using a phosphoimager.

GST-NDR1 [2] = experiment: GST-NDR1 in vitro autophosphorylation, incorporated 32P by Cerenkov counting; assay type: biochemical, human; settings: GST-NDR1 variant
Description: (§1) BL21-DE3-pRep4 E. coli strain was transformed with the pGEX-2T_NDR1 wild type or mutant plasmids. BL21-DE3 is a protease-deficient E. coli strain and pRep4 is a Laclq repressor-bearing plasmid both available commercially. Optionally, if desired, an E. coli strain comprising GroESL can be used, which expresses a chaperone protein that stabilizes the kinase. Mid-logarithmic phase cells were induced with 0.5 mM isopropyl beta-D-thiogalactopyranoside (IPTG) for 4 hours at 30° C. Bacteria were lysed using a French press in the presence of 1 mg/ml lysosyme, and the fusion proteins were purified on glutathione-agarose (Amersham Pharmacia Biotech) as described by the manufacturers. Recombinant proteins were assayed for kinase activity as described below and autophosphorylation was determined after SDS-PAGE separation either by Cerenkov counting or by exposure to a PhosphorImager screen followed by analysis with ImageQuant software (Molecular Dynamics).
(§2) In brief, 1 microgram of purified GST-NDR1 (in solution ˜0.5 microM) wild type, kinase dead (K118A), and alanine mutants of phosphorylation residues Thr74, Ser281, and Thr444 were autophosphorylated for 2 hours in vitro without further additions or in the presence of 1 mM CaCl2 and 10 microM bovine S100B. Proteins were visualized on SDS gels using Coomassie Blue R-350 stained SDS-PAGE gel, and [gamma-^32P]ATP-labelled proteins were visualized by autoradiography of the gels developed on a Phosphorimager screen. The amount of incorporated ^32P was quantified by Cerenkov counting.

GST-NDR1 [3] = biological target: T1, GST-NDR1 (Homo sapiens, UniProt Q15208); experiment: as above; assay type: biochemical; settings: in vitro
T1 construct: made in house; host or cells: E. coli BL21-DE3-pRep4
T1 sequence (Q15208 2-465): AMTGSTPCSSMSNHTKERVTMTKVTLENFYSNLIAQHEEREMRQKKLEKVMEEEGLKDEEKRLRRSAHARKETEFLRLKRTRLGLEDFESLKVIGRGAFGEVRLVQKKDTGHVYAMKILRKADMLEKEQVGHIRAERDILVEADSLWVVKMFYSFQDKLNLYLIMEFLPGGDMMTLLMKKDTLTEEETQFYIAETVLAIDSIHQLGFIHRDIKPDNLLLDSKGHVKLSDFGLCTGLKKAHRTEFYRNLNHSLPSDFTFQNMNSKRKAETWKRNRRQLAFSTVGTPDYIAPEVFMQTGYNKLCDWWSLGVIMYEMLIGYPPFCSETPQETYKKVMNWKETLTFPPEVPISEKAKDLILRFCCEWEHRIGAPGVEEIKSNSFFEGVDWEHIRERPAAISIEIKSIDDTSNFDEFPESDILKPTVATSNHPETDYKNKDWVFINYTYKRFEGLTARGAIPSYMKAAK
Description: as §1, §2

WT: human NDR1 wild type; GST fusion in the 2nd table, the 3rd table, HA-tagged in the 4th table
Specific activity of GST-NDR1 variants, −S100B (GST-NDR1 [1]; autophosphorylated 2 h in the absence of CaCl2 and S100B): 4.106
Specific activity of GST-NDR1 variants, +S100B (GST-NDR1 [1]; autophosphorylated 2 h in the presence of 1 mM CaCl2 and 10 mM bovine S100B): 21.348
Specific activity of GST-NDR1 variants, CTRL (GST-NDR1 [1]; left without further treatment): 1
kinase activity of HA-NDR1 variants, +OA (HA-NDR1; 1 microM okadaic acid 1 h): 10.8852
kinase activity of HA-NDR1 variants, −OA (HA-NDR1; solvent alone 1 h): 0.3532
amount of incorporated 32P (autophosphorylation), −S100B (GST-NDR1 [2]; 1 microgram, autophosphorylated 2 hours without further additions, pmol ATP/pmol GST-NDR1): 0.1688
amount of incorporated 32P (autophosphorylation), +S100B (GST-NDR1 [2]; 2 hours in the presence of 1 mM CaCl2 and 10 microM bovine S100B, in pmol ATP/pmol GST-NDR1): 0.3512
autophosphorylation of wild-type GST-NDR1 in vitro (GST-NDR1 [3]): up to 0.4 pmol ATP/pmol GST-NDR1
